{
  "source": "patent US20240294624A1",
  "about": "“ANTI-ERYTHROPOIETIN ANTIBODY” (ANDREMACON S.R.L., priority 2021, published 2024)",
  "molecules": {"B1": {"name": "anti-EPO (C4): isolated anti-Erythropoietin monoclonal antibody, VL SEQ ID NO:6, VH SEQ ID NO:14, hybridoma DSM ACC 3370 (antibody, listed as Homo sapiens, V domains shown)", "VH": "EVKLQESGGGLVQPGGSLKLSCAASGFTFSTYTMSWVRQTPEKRLEWVAYISNGGDRTYYPDTVKGRFTISRDDAKNTLFLQMSSLKSEDTAMYYCARHNITTVPFTMDYWGQGTSVTVSS", "VL": "DIVLTQSPASLAVSLGQRATISCRASESVDYYGTGLMQWYQQRPGQPPKLLIYGASNVGSGVPARFSGSGSGTDFSLNIHPVEGDDIAMYFCQQTRKVPSTFGGGTKLEIK", "modifications": "VH amino acid sequence; VL amino acid sequence"}},
  "key": {"GBM-CSC cell line": {"tested_on": "GBM-CSC cell line", "assay": "MTT cell viability assay", "assay_type": "cell-based, human", "details": "96 hours, anti-EPO (C4) 6 μg/ml, TMZ 100 μM, FTY720 100 nM", "experimental": "C. Glioblastoma cancer stem cell commercial line (Glioblastoma stem cell line, GBM-CSCs). Anti-EPO treatments were performed on GBM-CSCs, a commercial glioblastoma cancer cell line by CelProgen. As reported in the datasheet, GBM-CSCs have been isolated from human brain cancer tissue. GBM-CSCs were maintained in Celprogen's human glioblastoma cancer stem cell (GBM) complete growth medium and subcultured every 24 to 48 hours on a specific extra-cellular matrix."}, "MCF-7 [1]": {"tested_on": "MCF-7", "assay": "MTT cell viability assay", "assay_type": "cell-based, human", "details": "96 hours, 6 μg/ml", "source_text": "G. Breast cancer cell line (MCF-7); breast cancer cells."}, "[2]": {"assay": "Hematological toxicity, blood count", "assay_type": "in vivo", "details": "mice; IV 10 mg/Kg; 18 days", "experimental": "Blood samples (100 μL) were collected into K3EDTA coated tubes, which were placed on a rotary mixer for at least 30 min, then analyzed for hematological analysis.\nFIGS. 27 and 28 refer to blood count of mice treated intravenously (IV) for 18 days (T18) with anti-EPO at 10 mg/Kg. (A) RBC: red blood cells; (B) HGB: hemoglobin; (C) HCT: hematocrit; (D) MCV: mean corpuscular volume; (E) MCH: mean corpuscular hemoglobin; (F) MCHC: mean corpuscular hemoglobin concentration; (G) RDW: red cell distribution width; (H) RET: reticulocyte Count; (I) PLT: platelets. Data are means±SD (FIG. 27) and A) WBC: white blood cells; (B) NEUT: neutrophils; (C) LYMP: lymphocytes; (D) MONO: monocytes; (E) EOS: eosinophils; (F) BASO: basophils. Data are means±SD (FIG. 28)."}, "U373 cells": {"tested_on": "U373 cells", "assay": "MTT viability of chemo-resistant cells", "assay_type": "cell-based", "details": "96 h"}, "[3]": {"assay": "Renal and liver toxicity, serum biochemistry", "assay_type": "in vivo", "details": "mice; 11 and 18 days after treatment starting", "experimental": "Serum for Biochemistry were collected at least 400 μL of blood and putted it in an eppendorf tube with or without (plasma/serum) anticoagulant. The samples were left at environment temperature for at least 30′ minutes, then centrifuged at 500 g for 10 min, the supernatants were collected, being careful not to take the precipitate and analyzed for Biochemical tests. […] (A) Urea; (B) Creatinine; (C) Albumine, (D) AST; aspartate aminotransferase; (E) ALT: alanine aminotransferase. (FIG. 29)"}, "GBM-ECs": {"tested_on": "GBM-ECs", "assay": "Tube formation assay on Matrigel", "assay_type": "cell-based, human", "details": "48 h", "experimental": "GBM-ECs (1×10^4) were plated on 10 μL of Matrigel in BM, as a Control Condition (CTR, FIG. 8A) or in media containing the anti-EPO (C4) (FIG. 8B), TMZ (FIG. 8C), FTY720 (FIG. 8D), and anti-EPO (C4)+TMZ+FTY720 (FIG. 8E) treatments, as reported above. GBM-ECs were incubated at 37° C., 5% C02, 5% 02. After 48 h, tube-like structure formation was evaluated by phase-contrast microscopy."}, "HOC84": {"tested_on": "HOC84", "assay": "MTT cell viability assay", "assay_type": "cell-based, human", "details": "96 hours, 6 μg/ml", "source_text": "N. Human ovarian Cell (HOC) cultured in stem cell condition. In particular, HOC84 stem cells were obtained by digestion and cell isolation form a patient-derived xenograft (PDX) model from a high grade serous epithelial ovarian cancer, obtained by serial passages in nude mice."}, "PC-3": {"tested_on": "PC-3", "assay": "Caspase Glo 3/7 assay", "assay_type": "cell-based, human", "experimental": "(§1) Furthermore, cellular models were treated the above-mentioned pharmacological drugs and apoptotic effect was evaluated by caspase activity.\n(§2) Data are expressed as the mean±standard deviation of at least 3 experiments in triplicate. *P<0.05 versus CTR for all treatments tested."}, "DLD1": {"tested_on": "DLD1", "assay": "Caspase Glo 3/7 assay", "assay_type": "cell-based, human", "experimental": "as §1, §2"}, "GECs": {"tested_on": "GECs", "assay": "Caspase Glo 3/7 assay", "assay_type": "cell-based, human", "experimental": "as §1, §2"}, "MCF-7 [4]": {"tested_on": "MCF-7", "assay": "Caspase Glo 3/7 assay", "assay_type": "cell-based, human", "experimental": "as §1, §2"}, "K562": {"tested_on": "K562", "assay": "Caspase Glo 3/7 assay", "assay_type": "cell-based, human", "experimental": "as §1, §2"}, "[5]": {"tested_on": "anaplastic astrocytoma cancer stem cells", "assay": "Caspase Glo 3/7 assay", "assay_type": "cell-based, human", "experimental": "as §1, §2"}, "LNCAP": {"tested_on": "LNCAP", "assay": "Caspase Glo 3/7 assay", "assay_type": "cell-based, human", "experimental": "as §1, §2"}, "A2780": {"tested_on": "A2780", "assay": "Caspase Glo 3/7 assay", "assay_type": "cell-based, human", "experimental": "as §1, §2"}, "GBM-CSCs": {"tested_on": "GBM-CSCs", "assay": "Caspase Glo 3/7 assay", "assay_type": "cell-based, human", "experimental": "as §1, §2"}, "SHSY-5Y": {"tested_on": "SHSY-5Y", "assay": "Caspase Glo 3/7 assay", "assay_type": "cell-based, human", "experimental": "as §1, §2"}, "GSCs": {"tested_on": "GSCs", "assay": "Caspase Glo 3/7 assay", "assay_type": "cell-based, human", "experimental": "as §1, §2"}, "A549": {"tested_on": "A549", "assay": "Caspase Glo 3/7 assay", "assay_type": "cell-based, human", "experimental": "as §1, §2"}},
  "data": [
    {"molecule": "B1", "values": [
      {"measurement": "cells initially seeded dead", "setting": "GBM-CSC cell line", "result": "~79", "unit": "%"},
      {"measurement": "cells initially plated dead", "setting": "MCF-7 [1]", "result": 71, "unit": "%"},
      {"measurement": "blood count (hematological parameters)", "setting": "[2]", "result": "no significant variations in all hematological parameters analyzed"},
      {"measurement": "percent survival", "setting": "U373 cells", "result": 30, "unit": "%"},
      {"measurement": "serum biochemistry (urea, creatinine, albumine, AST, ALT)", "setting": "[3]", "result": "no significant variations"},
      {"measurement": "decrease of total length of formed tubes", "setting": "GBM-ECs", "result": 70, "unit": "%"},
      {"measurement": "formation of tubular-like structures", "setting": "GBM-ECs; phase-contrast microscopy", "result": "able to block the formation of tubular-like structures"},
      {"measurement": "cells initially plated dead", "setting": "HOC84", "result": 68, "unit": "%"},
      {"measurement": "increment of apoptosis (caspase 3/7 activation)", "setting": "PC-3", "result": 243, "unit": "%"},
      {"measurement": "increment of apoptosis (caspase 3/7 activation)", "setting": "DLD1", "result": 217, "unit": "%"},
      {"measurement": "increment of apoptosis (caspase 3/7 activation)", "setting": "GECs", "result": 220, "unit": "%"},
      {"measurement": "increment of apoptosis (caspase 3/7 activation)", "setting": "MCF-7 [4]", "result": 218, "unit": "%"},
      {"measurement": "increment of apoptosis (caspase 3/7 activation)", "setting": "K562", "result": 180, "unit": "%"},
      {"measurement": "increment of apoptosis (caspase 3/7 activation)", "setting": "[5]", "result": 205, "unit": "%"},
      {"measurement": "increment of apoptosis (caspase 3/7 activation)", "setting": "LNCAP", "result": 220, "unit": "%"},
      {"measurement": "increment of apoptosis (caspase 3/7 activation)", "setting": "A2780", "result": 234, "unit": "%"},
      {"measurement": "increment of apoptosis (caspase 3/7 activation)", "setting": "GBM-CSCs", "result": 210, "unit": "%"},
      {"measurement": "increment of apoptosis (caspase 3/7 activation)", "setting": "SHSY-5Y", "result": 200, "unit": "%"},
      {"measurement": "increment of apoptosis (caspase 3/7 activation)", "setting": "GSCs", "result": 200, "unit": "%"},
      {"measurement": "increment of apoptosis (caspase 3/7 activation)", "setting": "A549", "result": 200, "unit": "%"}
    ]}
  ]
}
